In patent publication US20160024210A1 (AstraZeneca / MedImmune, published 2016):

T1: H7CRECD human IgG1 Fc fusion protein (human, UniProt Q96BF3 23-150)
T1 construct: also called H7CR fusion protein; not shown: human IgG1 Fc
T1 sequence: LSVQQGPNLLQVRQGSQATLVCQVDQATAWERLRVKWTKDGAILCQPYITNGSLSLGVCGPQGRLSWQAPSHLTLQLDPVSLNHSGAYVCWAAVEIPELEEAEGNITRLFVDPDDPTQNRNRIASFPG

T2: human H7CR (B7-H7 counter-receptor) (human, UniProt Q96BF3 23-282)
T2 construct: Used for H7CR on CHO.hH7CR transfectants, human T cells and tonsil tissue; also called B7-H7CR; CD28H
T2 sequence: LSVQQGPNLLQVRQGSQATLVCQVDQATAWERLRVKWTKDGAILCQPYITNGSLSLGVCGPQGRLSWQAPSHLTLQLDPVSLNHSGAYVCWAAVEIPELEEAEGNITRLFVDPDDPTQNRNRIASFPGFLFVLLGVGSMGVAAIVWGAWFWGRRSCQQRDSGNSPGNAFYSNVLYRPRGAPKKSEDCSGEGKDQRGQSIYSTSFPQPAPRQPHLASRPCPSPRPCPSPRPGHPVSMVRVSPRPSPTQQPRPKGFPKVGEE


Tests used:
[1] = biological target: T1, H7CRECD human IgG1 Fc fusion protein; experiment: ELISA, H7CRECD human IgG1 Fc immobilized, anti-human IgG4 HRP detection
Experimental: 100 μl 1 μg/ml H7CRECD human IgG1 Fc fusion protein diluted in PBS was immobilized on flat bottom 96 well plate (Costar 9017) overnight at 4° C. Plates were washed twice with PBS+0.1% PS-20 and blocked with 200 μl/well PBS 10% FBS at RT for 1 hr. 100 μl human IgG4 Fc chimeric 1.3 and 14 selected 1.3 humanized variants diluted in PBS 10% FBS were added to each well and incubated at RT for 1 hr. Plates were washed three times and 100 μl 1 μg/ml anti-human IgG4 HRP (Southern Biotech) was added to each well and incubated at RT for 1 hr. Plates were washed six times and 100 μl TMB substrate (SurModics) was added to each well for 5-15 mins. 100 μl stop solution (0.1M Sulfuric acid) was added to each well. Plates were read at Absorbance 450 nm by PerkinElmer EnVision 2104 Multilabel Reader.

[2] = biological target: T2, human H7CR (B7-H7 counter-receptor); experiment: flow cytometry, MFI against antibody concentration on human naive CD4+CD45RA+ T cells, anti-hIg PE secondary antibody, one-site specific binding fit
Experimental: (§1) A serial dilution of chimeric 1.3 and 4.5 of 0, 0.1 ng, 0.3 ng, 1 ng, 3 ng, 10 ng, 30 ng, 100 ng, 300 ng, 1 μg, 3 μg and 10 μg were added to the cells and incubated at 4° C. for 30 min. Cells were then washed twice with 2 ml flow cytometry buffer, and resuspended in 100 μl flow cytometry buffer. 1 μl anti-hIg PE secondary antibody (Biolegend) was added and incubated with the cells for 15 mins Samples were then washed and resuspended in 100 μl flow cytometry buffer. Flow Cytometry data was acquired using BD Canto (BD Biosciences) in plate format and analyzed by FlowJo software. Staining data (MFI) was then input into Prism 5 software to generate binding curve. Curve-fit using one-site specific binding algorithm calculates individual KD for each antibody.

[3] = biological target: T2, human H7CR (B7-H7 counter-receptor); experiment: flow cytometry, MFI against antibody concentration on human naive CD8+CD45RA+ T cells, anti-hIg PE secondary antibody, one-site specific binding fit
Experimental: as §1

[4] = biological target: T2, human H7CR (B7-H7 counter-receptor); experiment: flow cytometry titration on CHO.hH7CR transfectants, one-site specific binding fit of MFI
Experimental: as §1

Binder | EC50 [1] [nM] | other results
1.3 humanized variant V8 (heavy 1C / light 1B) (antibody, V domains shown, Variable domains only; detected with anti-human IgG4 HRP) VH: QVQLQESGPGLVKPSQTLSLTCTVSGFSISTSGYYWSWIRQFPGKRLEWMGYINYGGGTSYNPSLKSRVTISRDTSKNQFSLKLSSVTAADTATYCCATMADRFAFFDVWGQGTMVTVSS VL: DIVMTQSPDSLAVSLGERATINCKSSQSLFSSNTNRNYLNWYQQKPGQSPKLLIYHASTRLSGVPDRFSGSGSGTDFTLTISSLQAEDVADYYCQHHYETPLTFGDGTKLEIK | 0.74 | 
1.3 humanized variant V4 (heavy 2A / light 1A) (antibody, V domains shown, Variable domains only; detected with anti-human IgG4 HRP) VH: QVQLQESGPGLVKPAQTLSLTCTVSGFSISTSGYYWSWIRQYPGKGLEWIGYINYGGGTYYNPSLKSRVTISVDTSKNQFSLKLTSVTAADTAVYHCATMADRFAFFDVWGQGTMVTVSS VL: DIVMTQSPDSLAVSLGERATINCKSSQSLFSSNTNRNYLAWYQQKPGQPPKLLIYHASTRESGVPDRFSGSGSGTDFTLTISSLQAEDVAVYYCQHHYETPLTFGQGTKLEIK | 1.08 | 
1.3 humanized variant V6 (heavy 2C / light 1A) (antibody, V domains shown, Variable domains only; detected with anti-human IgG4 HRP) VH: QVQLQESGPGLVKPAQTLSLTCTVSGFSISTSGYYWSWIRQFPGKRLEWMGYINYGGGTSYNPSLKSRVTISRDTSKNQFSLKLTSVTAADTATYCCATMADRFAFFDVWGQGTMVTVSS VL: DIVMTQSPDSLAVSLGERATINCKSSQSLFSSNTNRNYLAWYQQKPGQPPKLLIYHASTRESGVPDRFSGSGSGTDFTLTISSLQAEDVAVYYCQHHYETPLTFGQGTKLEIK | 0.3 | 
1.3 humanized variant V13 (heavy 2B / light 1C) (antibody, V domains shown, Variable domains only; detected with anti-human IgG4 HRP) VH: QVQLQESGPGLVKPAQTLSLTCTVSGFSISTSGYYWSWIRQYPGKRLEWIGYINYGGGTSYNPSLKSRVTISRDTSKNQFSLKLTSVTAADTATYCCATMADRFAFFDVWGQGTMVTVSS VL: DIVMTQSPDSLAVSLGERATINCLSSQSLFSSNTNRNYLNWYLQKPGQSPKLLIYHASTRLSGVPDRFIGSGSGTDFTLTISSLQAEDVGDYYCQHHYETPLTFGDGTKLEIK | 0.45 | 
1.3 humanized variant V12 (heavy 1C / light 1C) (antibody, V domains shown, Variable domains only; detected with anti-human IgG4 HRP) VH: QVQLQESGPGLVKPSQTLSLTCTVSGFSISTSGYYWSWIRQFPGKRLEWMGYINYGGGTSYNPSLKSRVTISRDTSKNQFSLKLSSVTAADTATYCCATMADRFAFFDVWGQGTMVTVSS VL: DIVMTQSPDSLAVSLGERATINCLSSQSLFSSNTNRNYLNWYLQKPGQSPKLLIYHASTRLSGVPDRFIGSGSGTDFTLTISSLQAEDVGDYYCQHHYETPLTFGDGTKLEIK | 0.75 | 
1.3 humanized variant V7 (heavy 1B / light 1B) (antibody, V domains shown, Variable domains only; detected with anti-human IgG4 HRP) VH: QVQLQESGPGLVKPSQTLSLTCTVSGFSISTSGYYWSWIRQHPGKRLEWIGYINYGGGTSYNPSLKSRVTISRDTSKNQFSLKLSSVTAADTAVYCCATMADRFAFFDVWGQGTMVTVSS VL: DIVMTQSPDSLAVSLGERATINCKSSQSLFSSNTNRNYLNWYQQKPGQSPKLLIYHASTRLSGVPDRFSGSGSGTDFTLTISSLQAEDVADYYCQHHYETPLTFGDGTKLEIK | 1.01 | 
chimeric 4.5 antibody (antibody, human IgG4 S228P, kappa, V domains shown) VH: QIQLQESGPGLVKPSQSLSLTCSVTGFSITTGGYYWNWIRQFPGKKLEWMGYIYTSGRTSYNPSLKSRISITRDTSKNQFFLQLNSMTTEDTATYYCADMADKGGWFAYWGQGTLVTVSS VL: DIVMTQSPSSLAVSAGEKVTISCLSSQSLFSSNTKRNYLNWYLQKPGQSPKLLIYHASTRLTGVPGRFIGSGSGTDFTLTVSTVQAEDLGDYFCQQHYETPLTFGDGTRLEIKR |  | Kd [2]: 6.9 nM; Kd [3]: 6.9 nM; Kd [4]: 3.5 nM

Second part, led by results:

EC50 [1] [nM] | Binder | other results
0.38 | 1.3 humanized variant V3 (heavy 1C / light 1A) (antibody, V domains shown, Variable domains only; detected with anti-human IgG4 HRP) VH: QVQLQESGPGLVKPSQTLSLTCTVSGFSISTSGYYWSWIRQFPGKRLEWMGYINYGGGTSYNPSLKSRVTISRDTSKNQFSLKLSSVTAADTATYCCATMADRFAFFDVWGQGTMVTVSS VL: DIVMTQSPDSLAVSLGERATINCKSSQSLFSSNTNRNYLAWYQQKPGQPPKLLIYHASTRESGVPDRFSGSGSGTDFTLTISSLQAEDVAVYYCQHHYETPLTFGQGTKLEIK | 
1.04 | 1.3 humanized variant V11 (heavy 1B / light 1C) (antibody, V domains shown, Variable domains only; detected with anti-human IgG4 HRP) VH: QVQLQESGPGLVKPSQTLSLTCTVSGFSISTSGYYWSWIRQHPGKRLEWIGYINYGGGTSYNPSLKSRVTISRDTSKNQFSLKLSSVTAADTAVYCCATMADRFAFFDVWGQGTMVTVSS VL: DIVMTQSPDSLAVSLGERATINCLSSQSLFSSNTNRNYLNWYLQKPGQSPKLLIYHASTRLSGVPDRFIGSGSGTDFTLTISSLQAEDVGDYYCQHHYETPLTFGDGTKLEIK | 
0.32 | 1.3 humanized variant V14 (heavy 2C / light 1C) (antibody, V domains shown, Variable domains only; detected with anti-human IgG4 HRP) VH: QVQLQESGPGLVKPAQTLSLTCTVSGFSISTSGYYWSWIRQFPGKRLEWMGYINYGGGTSYNPSLKSRVTISRDTSKNQFSLKLTSVTAADTATYCCATMADRFAFFDVWGQGTMVTVSS VL: DIVMTQSPDSLAVSLGERATINCLSSQSLFSSNTNRNYLNWYLQKPGQSPKLLIYHASTRLSGVPDRFIGSGSGTDFTLTISSLQAEDVGDYYCQHHYETPLTFGDGTKLEIK | 
2.43 | 1.3 humanized variant V9 (heavy 2B / light 1B) (antibody, V domains shown, Variable domains only; detected with anti-human IgG4 HRP) VH: QVQLQESGPGLVKPAQTLSLTCTVSGFSISTSGYYWSWIRQYPGKRLEWIGYINYGGGTSYNPSLKSRVTISRDTSKNQFSLKLTSVTAADTATYCCATMADRFAFFDVWGQGTMVTVSS VL: DIVMTQSPDSLAVSLGERATINCKSSQSLFSSNTNRNYLNWYQQKPGQSPKLLIYHASTRLSGVPDRFSGSGSGTDFTLTISSLQAEDVADYYCQHHYETPLTFGDGTKLEIK | 
0.28 | 1.3 humanized variant V5 (heavy 2B / light 1A) (antibody, V domains shown, Variable domains only; detected with anti-human IgG4 HRP) VH: QVQLQESGPGLVKPAQTLSLTCTVSGFSISTSGYYWSWIRQYPGKRLEWIGYINYGGGTSYNPSLKSRVTISRDTSKNQFSLKLTSVTAADTATYCCATMADRFAFFDVWGQGTMVTVSS VL: DIVMTQSPDSLAVSLGERATINCKSSQSLFSSNTNRNYLAWYQQKPGQPPKLLIYHASTRESGVPDRFSGSGSGTDFTLTISSLQAEDVAVYYCQHHYETPLTFGQGTKLEIK | 
1.18 | 1.3 humanized variant V10 (heavy 2C / light 1B) (antibody, V domains shown, Variable domains only; detected with anti-human IgG4 HRP) VH: QVQLQESGPGLVKPAQTLSLTCTVSGFSISTSGYYWSWIRQFPGKRLEWMGYINYGGGTSYNPSLKSRVTISRDTSKNQFSLKLTSVTAADTATYCCATMADRFAFFDVWGQGTMVTVSS VL: DIVMTQSPDSLAVSLGERATINCKSSQSLFSSNTNRNYLNWYQQKPGQSPKLLIYHASTRLSGVPDRFSGSGSGTDFTLTISSLQAEDVADYYCQHHYETPLTFGDGTKLEIK | 
0.84 | 1.3 humanized variant V1 (heavy 1A / light 1A) (antibody, V domains shown, Variable domains only; detected with anti-human IgG4 HRP; also called VI; variant 1) VH: QVQLQESGPGLVKPSQTLSLTCTVSGFSISTSGYYWSWIRQHPGKGLEWIGYINYGGGTYYNPSLKSRVTISVDTSKNQFSLKLSSVTAADTAVYYCATMADRFAFFDVWGQGTMVTVSS VL: DIVMTQSPDSLAVSLGERATINCKSSQSLFSSNTNRNYLAWYQQKPGQPPKLLIYHASTRESGVPDRFSGSGSGTDFTLTISSLQAEDVAVYYCQHHYETPLTFGQGTKLEIK | 
0.23 | 1.3 humanized variant V2 (heavy 1B / light 1A) (antibody, V domains shown, Variable domains only; detected with anti-human IgG4 HRP) VH: QVQLQESGPGLVKPSQTLSLTCTVSGFSISTSGYYWSWIRQHPGKRLEWIGYINYGGGTSYNPSLKSRVTISRDTSKNQFSLKLSSVTAADTAVYCCATMADRFAFFDVWGQGTMVTVSS VL: DIVMTQSPDSLAVSLGERATINCKSSQSLFSSNTNRNYLAWYQQKPGQPPKLLIYHASTRESGVPDRFSGSGSGTDFTLTISSLQAEDVAVYYCQHHYETPLTFGQGTKLEIK | 
0.055 | human IgG4 Fc chimeric 1.3 antibody (antibody, V domains shown, also called parental chimeric 1.3 antibody) VH: QIQLQESGPGLVKPSQSLSLTCSVTGFSISTSGYYWTWIRQFPGKRLEWMGYINYGGGTSYNPSLKSRISITRDTSKNQFLLHLNSVTTEDTATYCCATMADRFAFFDVWGQGIQVTVSS VL: DIVMTQSPSSLAVSAGEKVTISCLSSQSLFSSNTNRNYLNWYLQKPGQSPKLLIYHASTRLTGVPDRFIGSGSGTDFTLTISSVQAEDLGDYYCQHHYETPLTFGDGTKLEIKR | Kd [2]: 24 nM; Kd [3]: 27 nM; Kd [4]: 5.9 nM
